This note sets out measurements from US20180112001A1.

The target of the assay is human MUC16 (mucin 16), endogenously expressed on cells (human). Put plainly: MSD electrochemiluminescence cell binding; RLU ratio OVCAR-3/SK-OV-3; Ab […]; NS = Non-Specific, ratio <2.5-fold.
mIgG1 Isotype Control Antibody: the Ratio: anti-MUC16 Binding OVCAR-3/SK-OV-3 is less than 2.5. The result for mIgG2a Isotype Control Antibody reads less than 2.5; that for hIgG1 Isotype Control Antibody, less than 2.5.
